Experimental data reported in PMC11612773 (2024).

Biological target: the molecule itself

B1: recombinant soybean dehydrin GmPM12 (Glyma.04G009900.1) with carboxy-terminal hexahistidyl tag (natural protein)
chain: MAEAQLRDQHGNPVPLTDQYGNPVILTDERGNPVQLTGVATTATGTAGSGFGSYGTGAYGGGASATTVADLLATQPRSGREARELRRSSSSSSSSSEDDGQGGRRKKGVKDKIKEKLPGVGGGNNNKEHAHTTTAPTTATNHPADQHEKKGIMERIKEKLPGHHTHLE
  Kd: 6.8 µM

B2: recombinant Arabidopsis dehydrin LEA14 (AT2G21490) with carboxy-terminal hexahistidyl tag (natural protein)
chain: MADLRDEKGNPIHLTDTQGNPIVDLTDEHGNPMYLTGVVSSTPQHKESTTSDIAEHPTSTVGETHPAAAPAGAGAATAATATGVSAGTGATTTGQQHHGSLEEHLRRSGSSSSSSSEDDGQGGRRKKSIKEKIKEKFGSGKHKDEQTPATATTTGPATTDQPHEKKGILEKIKDKLPGHHNHNHP
  Kd: 13.3 µM
